# Test results as given in US20250186597A1, “TARGETED IMMUNE ACTIVATION WITH IL-18 IMMUNOCYTOKINES” (BRIGHT PEAK THERAPEUTICS AG, priority 2023, published 2025).
# B1: SEQ ID NO: 30: IL-18 polypeptide: E6K, V11I, C38A, K53A, T63A, C76A, C127A (protein)
# chain: YFGKLKSKLSIIRNLNDQVLFIDQGNRPLFEDMTDSDARDNAPRTIFIISMYADSQPRGMAVAISVKCEKISTLSAENKIISFKEMNPPDNIKDTKSDIIFFQRSVPGHDNKMQFESSSYEGYFLAAEKERDLFKLILKKEDELGDRSIMFTVQNED
# Tested on: parental PD-1negative NK-92 cells
# Test: IFN gamma secretion assay in parental PD-1 negative NK-92 cells (Example 17)
# Format: cell-based, human
# Details: IFNγ secretion
# Experimental: To show selectivity of the anti-PD1-IL18 immunocytokine (IC) for PD-1 positive cells, the NK-92 cell line was used to generate a PD-1 expressing cell line and furthermore, to measure IFN[…] release upon incubation with IL-18 variants and ICs.
# On the day of experiment, parental PD-1negative and PD-1positive transduced cells were harvested and washed with PBS 1× and resuspended in medium (w/o IL-2) containing 1 ng/ml of recombinant human Interleukin-12 (SinoBiologicals, Cat #CT011-H08H). After counting, cells were seeded at 100 000 cells/well in a 384 well culture plate and incubated at 37° C./5% CO2. When indicated, cells were preincubated with anti-PD-1 antibody LZM-009 at 17 uM during 30 min at 37° C. […] The lowest concentration assessed was 0.8 fM.
# After 16-20 h incubation at 37° C./5% CO2, 5 μl of supernatant were carefully transferred to a 384 microwell OptiPlate (Perkin Elmer; Cat #6007270) and Interferon-gamma (IFNγ) levels were measured using the Human IFNγ AlphaLISA Assay Kit (Perkin Elmer, Cat #AL217C). […] AlphaLISA signal was then measured on an Enspire plate reader (Perkin Elmer) using 680 and 615 nm as excitation and emission wavelengths respectively. Half maximal effective concentration (EC50) was calculated based on a variable slope, four parameter analysis using GraphPad PRISM software.
molecule,measurement,value
B1,EC50,2.4 pM
